Experimental data reported in patent US20060052582.

What was measured:
[1] = biological target: myc 6His Nek6 (Nek6 with carboxy terminal myc/6His epitopes)
[2] = biological target: GST Nek6 (K74M/K75M)
[3] = biological target: GST Nek7, unphosphorylated (bacterial recombinant)
[4] = biological target: GST Nek6
GST Nek6, sequence (chain, as listed by the source): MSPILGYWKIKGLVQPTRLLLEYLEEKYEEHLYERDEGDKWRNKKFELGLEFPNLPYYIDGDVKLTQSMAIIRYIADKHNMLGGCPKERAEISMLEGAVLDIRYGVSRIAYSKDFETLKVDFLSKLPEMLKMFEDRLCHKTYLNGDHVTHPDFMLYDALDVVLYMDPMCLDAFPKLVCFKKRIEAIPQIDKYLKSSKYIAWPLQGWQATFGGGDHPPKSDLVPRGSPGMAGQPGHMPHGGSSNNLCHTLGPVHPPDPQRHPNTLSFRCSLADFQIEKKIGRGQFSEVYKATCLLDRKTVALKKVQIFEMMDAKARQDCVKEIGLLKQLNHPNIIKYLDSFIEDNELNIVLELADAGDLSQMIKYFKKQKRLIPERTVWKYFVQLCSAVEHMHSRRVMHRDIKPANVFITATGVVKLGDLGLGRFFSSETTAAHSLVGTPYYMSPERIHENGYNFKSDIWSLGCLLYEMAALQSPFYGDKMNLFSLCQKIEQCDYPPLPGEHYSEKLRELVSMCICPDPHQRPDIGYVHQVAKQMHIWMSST

GST Nek7, unphosphorylated (bacterial recombinant), sequence (chain, as listed by the source): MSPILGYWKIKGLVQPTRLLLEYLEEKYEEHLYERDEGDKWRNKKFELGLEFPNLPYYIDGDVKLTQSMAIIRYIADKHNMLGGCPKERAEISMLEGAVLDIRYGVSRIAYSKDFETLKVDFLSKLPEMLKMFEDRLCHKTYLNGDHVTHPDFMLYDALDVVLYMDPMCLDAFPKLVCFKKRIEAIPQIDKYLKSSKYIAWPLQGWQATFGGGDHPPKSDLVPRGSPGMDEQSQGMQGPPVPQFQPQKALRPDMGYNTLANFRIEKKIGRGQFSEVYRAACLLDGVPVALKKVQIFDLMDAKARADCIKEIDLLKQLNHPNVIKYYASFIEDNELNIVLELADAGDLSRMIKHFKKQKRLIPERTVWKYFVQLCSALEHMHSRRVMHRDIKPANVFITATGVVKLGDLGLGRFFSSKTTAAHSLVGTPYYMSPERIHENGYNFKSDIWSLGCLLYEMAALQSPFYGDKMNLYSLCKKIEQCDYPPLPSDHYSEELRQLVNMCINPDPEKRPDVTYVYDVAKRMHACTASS
GST Nek6 (K74M/K75M), sequence (chain, as listed by the source K74M K75M): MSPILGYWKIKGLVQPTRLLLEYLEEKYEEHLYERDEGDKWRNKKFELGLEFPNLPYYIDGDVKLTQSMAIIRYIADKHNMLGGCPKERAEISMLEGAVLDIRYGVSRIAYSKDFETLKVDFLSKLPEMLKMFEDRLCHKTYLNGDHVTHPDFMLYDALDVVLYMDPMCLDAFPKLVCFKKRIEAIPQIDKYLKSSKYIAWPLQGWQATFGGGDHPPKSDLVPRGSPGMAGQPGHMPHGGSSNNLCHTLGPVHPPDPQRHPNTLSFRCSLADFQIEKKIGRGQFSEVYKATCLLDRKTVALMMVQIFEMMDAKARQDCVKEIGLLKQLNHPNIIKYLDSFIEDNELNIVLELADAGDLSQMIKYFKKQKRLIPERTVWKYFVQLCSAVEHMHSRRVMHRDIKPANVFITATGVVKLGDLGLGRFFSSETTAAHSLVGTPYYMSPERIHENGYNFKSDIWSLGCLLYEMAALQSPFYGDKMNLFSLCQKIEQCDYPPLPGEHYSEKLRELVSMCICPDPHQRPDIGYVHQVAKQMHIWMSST
myc 6His Nek6 (Nek6 with carboxy terminal myc/6His epitopes), sequence (chain, as listed by the source): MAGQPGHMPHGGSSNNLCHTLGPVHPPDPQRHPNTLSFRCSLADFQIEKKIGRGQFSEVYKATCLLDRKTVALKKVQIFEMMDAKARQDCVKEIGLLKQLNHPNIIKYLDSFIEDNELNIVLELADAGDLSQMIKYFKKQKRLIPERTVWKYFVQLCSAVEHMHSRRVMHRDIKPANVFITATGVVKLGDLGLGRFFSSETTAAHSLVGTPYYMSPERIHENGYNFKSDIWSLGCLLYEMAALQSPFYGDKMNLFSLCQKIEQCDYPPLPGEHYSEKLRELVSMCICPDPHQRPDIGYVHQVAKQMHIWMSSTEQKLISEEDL

B1: FLAG Nercc (Δ347-732) (protein)
chain: MDYKDDDDKMSVLGEYERHCDSINSDFGSESGGCGDSSPGPSASQGPRAGGGAAEQEELHYIPIRVLGRGAFGEATLYRRTEDDSLVVWKEVDLTRLSEKERRDALNEIVILALLQHDNIIAYYNHFMDNTTLLIELEYCNGGNLYDKILRQKDKLFEEEMVVWYLFQIVSAVSCIHKAGILHRDIKTLNIFLTKANLIKLGDYGLAKKLNSEYSMAETLVGTPYYMSPELCQGVKYNFKSDIWAVGCVIFELLTLKRTFDATNPLNLCVKIVQGIRAMEVDSSQYSLELIQMVHSCLDQDPEQRPTADELLDRPLLRKRRREMEEKVTLLNAPTKRPRSSTVTEAPIAVVTSRTIRSNSSGLSIGTVFQSSSPGGGGGGGGGEEEDSQQESETPDPSGGFRGTMEADRGMEGLISPTEAMGNSNGASSSCPGWLRKELENAEFIPMPDSPSPLSAAFSESEKDTLPYEELQGLKVASEAPLEHKPQVEASSPRLNPAVTCAGKGTPLTPPACACSSLQVEVERLQGLVLKCLAEQQKLQQENLQIFTQLQKLNKKLEGGQQVGMHSKGTQTAKEEMEMDPKPDLDSDSGCLLGTDSCRPSL
[1]
  specific activity of coexpressed Nek6: a two-fold increase in the specific activity of coexpressed Nek6

B2: FLAG Nercc (full-length wild type Nercc1 kinase with FLAG epitope tag) (protein)
chain: MDYKDDDDKMSVLGEYERHCDSINSDFGSESGGCGDSSPGPSASQGPRAGGGAAEQEELHYIPIRVLGRGAFGEATLYRRTEDDSLVVWKEVDLTRLSEKERRDALNEIVILALLQHDNIIAYYNHFMDNTTLLIELEYCNGGNLYDKILRQKDKLFEEEMVVWYLFQIVSAVSCIHKAGILHRDIKTLNIFLTKANLIKLGDYGLAKKLNSEYSMAETLVGTPYYMSPELCQGVKYNFKSDIWAVGCVIFELLTLKRTFDATNPLNLCVKIVQGIRAMEVDSSQYSLELIQMVHSCLDQDPEQRPTADELLDRPLLRKRRREMEEKVTLLNAPTKRPRSSTVTEAPIAVVTSRTSEVYIWGGGKSTPQKLDVIKSGCSARQVCAGNTHFAVVTVEKELYTWVNMQGGTKLHGQLGHGDKASYRQPKHVEKLQGKAIHQVSCGDDFTVCVTDEGQLYAFGSDYYGCMGVDKVAGPEVLEPMQLNFFLSNPVEQVSCGDNHVVVLTRNKEVYSWGCGEYGRLGLDSEEDYYTPQKVDVPKALIIVAVQCGCDGTFLLTQSGKVLACGLNEFNKLGLNQCMSGIINHEAYHEVPYTTSFTLAKQLSFYKIRTIAPGKTHTAAIDERGRLLTFGCNKCGQLGVGNYKKRLGINLLGGPLGGKQVIRVSCGDEFTIAATDDNHIFAWGNGGNGRLAMTPTERPHGSDICTSWPRPIFGSLHHVPDLSCRGWHTILIVEKVLNSKTIRSNSSGLSIGTVFQSSSPGGGGGGGGGEEEDSQQESETPDPSGGFRGTMEADRGMEGLISPTEAMGNSNGASSSCPGWLRKELENAEFIPMPDSPSPLSAAFSESEKDTLPYEELQGLKVASEAPLEHKPQVEASSPRLNPAVTCAGKGTPLTPPACACSSLQVEVERLQGLVLKCLAEQQKLQQENLQIFTQLQKLNKKLEGGQQVGMHSKGTQTAKEEMEMDPKPDLDSDSGCLLGTDSCRPSL
[2]
  phosphorylation of Nek6 (K74M/K75M) at Ser206 in vitro: This modification occurred, however, with a rather low efficiency
[3]
  Nek6/7 kinase activity (32P into GST Cdc16 Ct): 20-25 fold activation of Nek6/7 kinase activity
[4]
  Nek6/7 kinase activity (32P into GST Cdc16 Ct): 20-25 fold activation of Nek6/7 kinase activity
